Test results from the supplement of paper PMC10567573.

B1: CSTF3 (parent)
chain: YVPEKVKKAEKKLEENPYDLDAWS

Variants of: B1
Assay: protein stability index of a GFP-peptide fusion (GPS, HEK-293T) (PSI 1-6); higher = more stable
Conditions: c terminus: a fixed tail appended
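Note: lentivirally expressed fusions sorted by FACS into six bins by GFP to DsRed ratio, PSI derived from sequencing read proportions per bin multiplied by bin number.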

| Variant | protein stability index |
| --- | --- |
| YVPEKVKKAEKKFEENPYDLDAWS | 2.02 |
| YVPEKVKKAEKKSEENPYDLDAWS | 3.52 |
| YVPEKVKKAEKKIEENPYDLDAWS | 3.1 |
| YVPEKVKKAEKKYEENPYDLDAWS | 1.87 |
| YVPEKVKKAEKKTEENPYDLDAWS | 1.92 |
| YVPEKVKKAEKKVEENPYDLDAWS | 2.21 |
| YVPEKVKKAEKKAEENPYDLDAWS | 2.25 |
| YVPEKVKKAEKKPEENPYDLDAWS | 2.46 |
| YVPEKVKKAEKKDEENPYDLDAWS | 2.22 |
| YVPEKVKKAEKKQEENPYDLDAWS | 2.36 |
| YVPEKVKKAEKKWEENPYDLDAWS | 2.45 |
| YVPEKVKKAEKKREENPYDLDAWS | 2.67 |
| YVPEKVKKAEKKGEENPYDLDAWS | 2.23 |
| YVPEKVKKAEKKEEENPYDLDAWS | 2.86 |
| YVPEKVKKAEKKHEENPYDLDAWS | 2.49 |
| YVPEKVKKAEKKMEENPYDLDAWS | 3.19 |
| YVPEKVKKAEKKKEENPYDLDAWS | 2.5 |
| YVPEKVKKAEKKLEENWYDLDAWS | 2.5 |
| YVPEKVKKAEKKLEENCYDLDAWS | 2.34 |
| YVPEKVKKAEKKLEENNYDLDAWS | 2.52 |
| YVPEKVKKAEKKLEENVYDLDAWS | 1.43 |
| YVPEKVKKAEKKLEENLYDLDAWS | 3.01 |
| YVPEKVKKAEKKLEENHYDLDAWS | 2.04 |
| YVPEKVKKAEKKLEENGYDLDAWS | 2.39 |

| Variant | protein stability index |
| --- | --- |
| YVPEKVKKAEKKLEENDYDLDAWS | 3.55 |
| YVPEKVKKAEKKLEENRYDLDAWS | 2.29 |
| YVPEKVKKAEKKLEENEYDLDAWS | 2.63 |
| YVPEKVKKAEKKLEENYYDLDAWS | 2.43 |
| YVPEKVKKAEKKLEENKYDLDAWS | 1.32 |
| YVPEKVKKAEKKLEENFYDLDAWS | 1.95 |
| YVPEKVKKAEKKLEENMYDLDAWS | 2.48 |
| YVPEKVKKAEKKLEENSYDLDAWS | 2.37 |
| YVPEKVKKAEKKLEENTYDLDAWS | 3.18 |
| YVPEKVKKAEKKLEENIYDLDAWS | 2.32 |
| YVPEKVKKAEKKLEENQYDLDAWS | 1.22 |
| YVPEKVKKAEKKLEENAYDLDAWS | 2.45 |
| YVPEKVKKAEKKLEENPYDLDDWS | 1.67 |
| YVPEKVKKAEKKLEENPYDLDEWS | 2.29 |
| YVPEKVKKAEKKLEENPYDLDFWS | 1.8 |
| YVPEKVKKAEKKLEENPYDLDCWS | 2.59 |
| YVPEKVKKAEKKLEENPYDLDHWS | 3.16 |
| YVPEKVKKAEKKLEENPYDLDGWS | 2.4 |
| YVPEKVKKAEKKLEENPYDQDAWS | 2.79 |
| YVPEKVKKAEKKLEENPYDWDAWS | 1.55 |
| YVPEKVKKAEKKLEENPYDFDAWS | 1.44 |
| YVPEKVKKAEKKLEENPYDSDAWS | 2.24 |
| YVPEKVKKAEKKLEENPYDVDAWS | 3.2 |
| YVPEKVKKAEKKLEENPYDTDAWS | 3.25 |

| Variant | protein stability index |
| --- | --- |
| YVPEKVKKAEKKLEENPYDGDAWS | 2.15 |
| YVPEKVKKAEKKLEENPYDRDAWS | 2.9 |
| YVPEKVKKAEKKLEENPYDKDAWS | 1.96 |
| YVPEKVKKAEKKLEENPYDIDAWS | 1.97 |
| YVPEKVKKAEKKLEENPYDPDAWS | 2.23 |
| YVPEKVKKAEKKLEENPYDADAWS | 2.54 |
| YVPEKVKKAEKKLEENPYDHDAWS | 2.84 |
| YVPEKVKKAEKKLEENPYDYDAWS | 2.13 |
| YVPEKVKKAEKKLEENPYDCDAWS | 2.71 |
| YVPEKVKKAEKKLEENPYDEDAWS | 1.76 |
| YVPEKVKKAEKKLEENPYDMDAWS | 1.91 |
| YVPEKVKKAEKKLEENPYDDDAWS | 1.73 |
| YVPEKVKKAERKLEENPYDLDAWS | 2.94 |
| YVPEKVKKAEYKLEENPYDLDAWS | 2.72 |
| YVPEKVKKAEVKLEENPYDLDAWS | 3.77 |
| YVPEKVKKAESKLEENPYDLDAWS | 2.66 |
| YVPEKVKKAEQKLEENPYDLDAWS | 3.48 |
| YVPEKVKKAEPKLEENPYDLDAWS | 2.65 |
| YVPEKVKKAEWKLEENPYDLDAWS | 2.4 |
| YVPEKVKKAEKKLEENPYRLDAWS | 2.04 |
| YVPEKVKKAEKKLEENPYHLDAWS | 1.58 |
| YVPEKVKKAEKKLEENPYELDAWS | 2.57 |
| YVPEKVKKAEKKLEENPYILDAWS | 2.28 |
| YVPEKVKKAEKKLEENPYMLDAWS | 2.14 |

| Variant | protein stability index |
| --- | --- |
| YVPEKVKKAEKKLEENPYTLDAWS | 2.34 |
| YVPEKVKKAEKKLEENPYYLDAWS | 2.69 |
| YVPEKVKKAEKKLEENPYNLDAWS | 2.54 |
| YVPEKVKKAEKKLEENPYWLDAWS | 2.98 |
| YVPEKVKKAEKKLEENPYLLDAWS | 1.62 |
| YVPEKVKKAEKKLEENPYKLDAWS | 3.97 |
| YVPEKVKKAEKKLEENPYALDAWS | 2.2 |
| YVPEKVKKAEKKLEENPYGLDAWS | 3.95 |
| YVPEKVKKAEKKLEENPYQLDAWS | 3.34 |
| YVPEKVKKAEKKLEENPYSLDAWS | 2.91 |
| YVPEKVKKAEKKLEENPYPLDAWS | 2.59 |
| YVPEKVKKAEKKLEENPTDLDAWS | 2.27 |
| YVPEKVKKAEKKLEENPQDLDAWS | 2.17 |
| YVPEKVKKAEKKLEENPCDLDAWS | 2.88 |
| YVPEKVKKAEKKLEENPPDLDAWS | 2.71 |
| YVPEKVKKAEKKLEENPDDLDAWS | 5.04 |
| YVPEKVKKAEKKLEENPKDLDAWS | 3.33 |
| YVPEKVKKAEKKLEENPHDLDAWS | 2.12 |
| YVPEKVKKAEKKLEENPGDLDAWS | 2.35 |
| YVPEKVKKAEKKLEENPFDLDAWS | 2.55 |
| YVPEKVKKAEKKLEENPMDLDAWS | 2.58 |
| YVPEKVKKAEKKLEENPVDLDAWS | 1.45 |
| YVPEKVKKAEKKLEENPSDLDAWS | 2.46 |
| YVPEKVKKAEKKLEENPLDLDAWS | 2.15 |

| Variant | protein stability index |
| --- | --- |
| YVPEKVKKAEKKLEENPADLDAWS | 2.62 |
| YVPEKVKKAEKKLEENPNDLDAWS | 2.38 |
| YVPEKVKKAEKKLEENPEDLDAWS | 1.93 |
| YVPEKVKKAEKKLEENPIDLDAWS | 2.47 |
| YVPEKVKKAEKKLEENPRDLDAWS | 2.77 |
| YVPEKVKKAEKKLEENPWDLDAWS | 1.61 |
| YVPEKVKKAEKKLEDNPYDLDAWS | 2.86 |
| YVPEKVKKAEKKLESNPYDLDAWS | 3.34 |
| YVPEKVKKAEKKLEPNPYDLDAWS | 2.47 |
| YVPEKVKKAEKKLEHNPYDLDAWS | 2.05 |
| YVPEKVKKAEKKLEANPYDLDAWS | 3.94 |
| YVPEKVKKAEKKLELNPYDLDAWS | 3.23 |
| YVPEKVKKAEKKLETNPYDLDAWS | 1.58 |
| YVPEKVKKAEKKLEVNPYDLDAWS | 3.54 |
| YVPEKVKKAEKKLEGNPYDLDAWS | 2.88 |
| YVPEKVKKAEKKLEWNPYDLDAWS | 2.8 |
| YVPEKVKKAEKKLEMNPYDLDAWS | 2.99 |
| YVPEKVKKAEKKLEKNPYDLDAWS | 3.45 |
| YVPEKVKKAEKKLERNPYDLDAWS | 3.05 |
| YVPEKVKKAEKKLECNPYDLDAWS | 2.68 |
| YVPEKVKKAEKKLEQNPYDLDAWS | 3.42 |
| YVPEKVKKAEKKLEYNPYDLDAWS | 3.42 |
| YVPEKVKKAEKKLEFNPYDLDAWS | 2.55 |
| YVPEKVKKAEKKLEESPYDLDAWS | 2.65 |

| Variant | protein stability index |
| --- | --- |
| YVPEKVKKAEKKLEEQPYDLDAWS | 2.24 |
| YVPEKVKKAEKKLEEWPYDLDAWS | 2.08 |
| YVPEKVKKAEKKLEERPYDLDAWS | 2.64 |
| YVPEKVKKAEKKLEETPYDLDAWS | 2.27 |
| YVPEKVKKAEKKLEEAPYDLDAWS | 2.04 |
| YVPEKVKKAEKKLEEMPYDLDAWS | 1.81 |
| YVPEKVKKAEKKLEEKPYDLDAWS | 3.09 |
| YVPEKVKKAEKKLEEDPYDLDAWS | 2.73 |
| YVPEKVKKAEKKLEEIPYDLDAWS | 1.05 |
| YVPEKVKKAEKKLEELPYDLDAWS | 3.68 |
| YVPEKVKKAEKKLEEEPYDLDAWS | 3.13 |
| YVPEKVKKAEKKLEEGPYDLDAWS | 2.54 |
| YVPEKVKKAEKKLEECPYDLDAWS | 1.67 |
| YVPEKVKKAEKKLEEFPYDLDAWS | 3.03 |
| YVPEKVKKAEKKLEEPPYDLDAWS | 1.67 |
| YVPEKVKKAEKKLEEYPYDLDAWS | 2.56 |
| YVPEKVKKAEKCLEENPYDLDAWS | 2.49 |
| YVPEKVKKAEKYLEENPYDLDAWS | 2.72 |
| YVPEKVKKAEKSLEENPYDLDAWS | 3.79 |
| YVPEKVKKAEKDLEENPYDLDAWS | 2.9 |
| YVPEKVKKAEKHLEENPYDLDAWS | 3.19 |
| YVPEKVKKAEKFLEENPYDLDAWS | 3.31 |
| YVPEKVKKAEKALEENPYDLDAWS | 2.82 |
| YVPEKVKKAEKGLEENPYDLDAWS | 2.68 |

| Variant | protein stability index |
| --- | --- |
| YVPEKVKKAEKRLEENPYDLDAWS | 2.88 |
| YVPEKVKKAEKLLEENPYDLDAWS | 2.95 |
| YVPEKVKKAEKTLEENPYDLDAWS | 3.28 |
| YVPEKVKKAEKPLEENPYDLDAWS | 3.32 |
| YVPEKVKKAEKVLEENPYDLDAWS | 2.59 |
| YVPEKVKKAEKQLEENPYDLDAWS | 3.16 |
| YVPEKVKKAEKELEENPYDLDAWS | 2.41 |
| YVPEKVKKAEKMLEENPYDLDAWS | 2.6 |
| YVPEKVKKAEKWLEENPYDLDAWS | 2.9 |
| YVPEKVKKAEKILEENPYDLDAWS | 2.7 |
| YVPEKVKKAEKNLEENPYDLDAWS | 2.92 |
| YVPEKVKKAEKKLEENPYDLWAWS | 2.24 |
| YVPEKVKKAEKKLEENPYDLEAWS | 3.37 |
| YVPEKVKKAEKKLEENPYDLSAWS | 2.21 |
| YVPEKVKKAEKKLEENPYDLQAWS | 2.86 |
| YVPEKVKKAEKKLEENPYDLYAWS | 2.19 |
| YVPEKVKKAEKKLEENPYDLRAWS | 2.03 |
| YVPEKVKKAEKKLEENPYDLNAWS | 4.07 |
| YVPEKVKKAEKKLEENPYDLPAWS | 1.43 |
| YVPEKVKKAEKKLEENPYDLAAWS | 2.98 |
| YVPEKVKKAEKKLEENPYDLHAWS | 2.43 |
| YVPEKVKKAEKKLEENPYDLFAWS | 2.63 |
| YVPEKVKKAEKKLEENPYDLLAWS | 1.99 |
| YVPEKVKKAEKKLEENPYDLMAWS | 3.19 |

| Variant | protein stability index |
| --- | --- |
| YVPEKVKKAEKKLEENPYDLVAWS | 1.83 |
| YVPEKVKKAEKKLEENPYDLGAWS | 2.66 |
| YVPEKVKKAEKKLEENPYDLIAWS | 3.3 |
| YVPEKVKKAEKKLHENPYDLDAWS | 2.92 |
| YVPEKVKKAEKKLIENPYDLDAWS | 3.95 |
| YVPEKVKKAEKKLFENPYDLDAWS | 1.88 |
| YVPEKVKKAEKKLAENPYDLDAWS | 2.61 |
| YVPEKVKKAEKKLPENPYDLDAWS | 3.04 |
| YVPEKVKKAEKKLKENPYDLDAWS | 2.88 |
| YVPEKVKKAEKKLCENPYDLDAWS | 3.58 |
| YVPEKVKKAEKKLTENPYDLDAWS | 2.26 |
| YVPEKVKKAEKKLLENPYDLDAWS | 2.35 |
| YVPEKVKKAEKKLSENPYDLDAWS | 3.27 |
| YVPEKVKKAEKKLVENPYDLDAWS | 2.25 |
| YVPEKVKKAEKKLYENPYDLDAWS | 2.2 |
| YVPEKVKKAEKKLRENPYDLDAWS | 2.36 |
| YVPEKVKKAEKKLNENPYDLDAWS | 2.18 |
| YVPEKVKKAEKKLGENPYDLDAWS | 2.17 |
| YVPEKVKKAEKKLWENPYDLDAWS | 3.09 |
| YVPEKVKKAEKKLQENPYDLDAWS | 2.02 |
